Measured values published in patent publication US20240270821A1, “GIP/GLP1/GCG TRI-RECEPTOR AGONISTS AND USES THEREOF” (priority 2023, published 2024).

T1: human GIP receptor (human) (UniProt P48546)
T1 sequence (looked up): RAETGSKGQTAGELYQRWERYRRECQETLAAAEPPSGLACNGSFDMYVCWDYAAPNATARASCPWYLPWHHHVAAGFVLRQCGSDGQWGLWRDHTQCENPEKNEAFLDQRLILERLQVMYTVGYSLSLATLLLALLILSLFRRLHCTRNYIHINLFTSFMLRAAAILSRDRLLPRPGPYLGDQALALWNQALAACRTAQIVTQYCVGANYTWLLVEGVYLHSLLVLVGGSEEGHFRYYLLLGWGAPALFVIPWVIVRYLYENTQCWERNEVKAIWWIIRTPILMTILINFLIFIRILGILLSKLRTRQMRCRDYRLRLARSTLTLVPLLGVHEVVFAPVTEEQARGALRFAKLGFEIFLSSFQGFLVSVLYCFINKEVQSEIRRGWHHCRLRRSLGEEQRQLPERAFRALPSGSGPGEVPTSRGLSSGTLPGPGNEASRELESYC

B1: Example 416 (peptide)
chain: YXQGTXTSDYSILLDKKAQXNFIEYLEEGGPSSGAPPPS
modifications: synthetic construct; SITE 2: note = 2-Aminoisobutyric Acid; SITE 6: note = alpha-methyl-2-fluoro-L-phenylalanine; SITE 17: note = Lysine is chemically modified through conjugation of the epsilon-amino group of the Lysine side chain with (gamma-Glu)2-CO-(CH2)16-CO2H; SITE 20: note = 2-Aminoisobutyric
B2: Example 427 (peptide)
chain: YXQGTXTSDYSILLDXKAQXAFIEYLLEGGPSSGAPPPS
modifications: synthetic construct; SITE 2: note = 2-Aminoisobutyric Acid; SITE 6: note = alpha-methyl-2-fluoro-L-phenylalanine; SITE 16: note = L-ornithine; SITE 17: note = Lysine is chemically modified through conjugation of the epsilon-amino group of the Lysine side chain with (2-[2-(2-Amino-ethoxy)-ethoxy]-ace)
B3: Example 425 (peptide)
chain: HXQGTXTSDYSILLDKKAQXAFIEYLEEGGPSSGAPPPS
modifications: not fully specified; synthetic construct; SITE 2: note = 2-Aminoisobutyric Acid; SITE 6: note = alpha-methyl-2-fluoro-L-phenylalanine; SITE 17: note = Lysine is chemically modified through conjugation of the epsilon-amino group of the Lysine side chain with (2-[2-(2-Amino-ethoxy)-ethoxy]-acetyl)-(gamma-Glu)-CO-(CH2) 16-
B4: Example 418 (peptide)
chain: YXQGTXTSDXSILLDKKAQXAFIEYLLEGGPSSGAPPPS
modifications: synthetic construct; SITE 2: note = 2-Aminoisobutyric Acid; SITE 6: note = alpha-methyl-L-phenylalanine; SITE 10: note = 3-(4-Pyridyl)-L-alanine; SITE 17: note = Lysine is chemically modified through conjugation of the epsilon-amino group of the Lysine side chain with (2-[2-(2-Amino-ethoxy)-ethoxy]-
B5: Example 419 (peptide)
chain: YXQGTXTSDYSILLDKKAQXAFIEYLLEGGPSSGAPPPS
modifications: synthetic construct; SITE 2: note = 2-Aminoisobutyric Acid; SITE 6: note = alpha-methyl-L-phenylalanine; SITE 17: note = Lysine is chemically modified through conjugation of the epsilon-amino group of the Lysine side chain with (2-[2-(2-Amino-ethoxy)-ethoxy]-acetyl)2-(gamma-Glu)-CO-(CH2 )16-CO2H; SI
B6: Example 423 (peptide)
chain: YXQGTXTSDYSIXLDKKAQXAFIEYLEEGGPSSGAPEPS
modifications: synthetic construct; SITE 2: note = 2-Aminoisobutyric Acid; SITE 6: note = alpha-methyl-2-fluoro-L-phenylalanine; SITE 13: note = alpha-methyl-leucine; SITE 17: note = Lysine is chemically modified through conjugation of the epsilon-amino group of the Lysine side chain with (2-[2-(2-Amino-ethoxy)-et)
B7: Example 441 (peptide)
chain: YXQGTXTSDXSIXLDXKAQXAFIEYLEEGGPSSGAPPPS
modifications: synthetic construct; SITE 2: note = 2-Aminoisobutyric Acid; SITE 6: note = alpha-methyl-2-fluoro-L-phenylalanine; SITE 10: note = 3-(4-Pyridyl)-L-alanine; SITE 13: note = alpha-methyl-leucine; SITE 16: note = L-ornithine; SITE 17: note = Lysine is chemically modified through conjugation of the epsil
B8: Example 415 (peptide)
chain: YXQGTXTSDYSILLDKKAQXXFIEYLEEGGPSSGAPPPS
modifications: synthetic construct; SITE 2: note = 2-Aminoisobutyric Acid; SITE 6: note = alpha-methyl-2-fluoro-L-phenylalanine; SITE 17: note = Lysine is chemically modified through conjugation of the epsilon-amino group of the Lysine side chain with (gamma-Glu)2-CO-(CH2)16-CO2H; SITE 20: note = 2-Aminoisobutyric
B9: Example 421 (peptide)
chain: YXQGTXTSDYSIXLDKKAQXAFIEYLEEGGPSSGAPPPS
modifications: synthetic construct; SITE 2: note = 2-Aminoisobutyric Acid; SITE 6: note = alpha-methyl-2-fluoro-L-phenylalanine; SITE 13: note = alpha-methyl-leucine; SITE 17: note = Lysine is chemically modified through conjugation of the epsilon-amino group of the Lysine side chain with (2-[2-(2-Amino-ethoxy)-et)
B10: Example 426 (peptide)
chain: HXQGTXTSDYSILLDKKAQXAFIEYLEEGGPSSGAPPPS
modifications: synthetic construct; SITE 2: note = 2-Aminoisobutyric Acid; SITE 6: note = alpha-methyl-2-fluoro-L-phenylalanine; SITE 17: note = Lysine is chemically modified through conjugation of the epsilon-amino group of the Lysine side chain with (gamma-Glu)2-CO-(CH2)16-CO2H; SITE 20: note = 2-Aminoisobutyric
B11: Example 430 (peptide)
chain: YXQGTXTSDYSILLDKIAQXAFIKYLEEGGPSSGAPPPS
modifications: not fully specified; synthetic construct; SITE 2: note = 2-Aminoisobutyric Acid; SITE 6: note = alpha-methyl-2-fluoro-L-phenylalanine; SITE 20: note = 2-Aminoisobutyric Acid; SITE 24: note = Lysine is chemically modified through conjugation of the epsilon-amino group of the Lysine side chain with (2-[2-(2-Amino-ethoxy)-
B12: Example 428 (peptide)
chain: YXQGTXTSDYSILLDXKAQXAFIEYLLEGGPSSGAPPPS
modifications: synthetic construct; SITE 2: note = 2-Aminoisobutyric Acid; SITE 6: note = alpha-methyl-2-fluoro-L-phenylalanine; SITE 16: note = L-ornithine; SITE 17: note = Lysine is chemically modified through conjugation of the epsilon-amino group of the Lysine side chain with (gamma-Glu)2-CO-(CH2)16-CO2H; SITE
B13: Example 424 (peptide)
chain: YXQGTXTSDYSIXLDKKAQXAFIEYLEEGGPSSGAPPPSE
modifications: synthetic construct; SITE 2: note = 2-Aminoisobutyric Acid; SITE 6: note = alpha-methyl-2-fluoro-L-phenylalanine; SITE 13: note = alpha-methyl-leucine; SITE 17: note = Lysine is chemically modified through conjugation of the epsilon-amino group of the Lysine side chain with (2-[2-(2-Amino-ethoxy)-et)
B14: Example 433 (peptide)
chain: YXQGTXTSDYSILLDKKAQXAFIEYLEEGGPSSGAPPPSE
modifications: synthetic construct; SITE 2: note = 2-Aminoisobutyric Acid; SITE 6: note = alpha-methyl-2-fluoro-L-phenylalanine; SITE 17: note = Lysine is chemically modified through conjugation of the epsilon-amino group of the Lysine side chain with (gamma-Glu)2-CO-(CH2)16-CO2H; SITE 20: note = 2-Aminoisobutyric

How the values were obtained:
Test in all cases: cell-based or functional assay
hGLP-1R = hGLP-1R (Homo sapiens, UniProt P43220)
Sequence of hGLP-1R (P43220 24-463): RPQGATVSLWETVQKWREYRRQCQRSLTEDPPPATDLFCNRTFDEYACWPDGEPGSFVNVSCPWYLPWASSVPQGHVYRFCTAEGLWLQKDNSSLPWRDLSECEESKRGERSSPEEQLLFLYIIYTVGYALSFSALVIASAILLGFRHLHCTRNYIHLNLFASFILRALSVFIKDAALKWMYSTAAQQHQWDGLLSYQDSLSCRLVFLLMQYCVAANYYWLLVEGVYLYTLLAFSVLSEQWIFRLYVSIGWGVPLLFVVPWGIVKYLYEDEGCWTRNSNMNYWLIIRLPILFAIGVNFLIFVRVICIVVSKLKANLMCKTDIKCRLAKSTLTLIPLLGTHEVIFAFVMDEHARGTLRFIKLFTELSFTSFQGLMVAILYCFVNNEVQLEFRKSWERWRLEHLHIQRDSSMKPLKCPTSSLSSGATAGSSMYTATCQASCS

[1] = biological target: T1, human GIP receptor (human)
[2] = biological target: human glucagon receptor (human) (UniProt P47871)
Sequence of human glucagon receptor (human) (P47871 26-477): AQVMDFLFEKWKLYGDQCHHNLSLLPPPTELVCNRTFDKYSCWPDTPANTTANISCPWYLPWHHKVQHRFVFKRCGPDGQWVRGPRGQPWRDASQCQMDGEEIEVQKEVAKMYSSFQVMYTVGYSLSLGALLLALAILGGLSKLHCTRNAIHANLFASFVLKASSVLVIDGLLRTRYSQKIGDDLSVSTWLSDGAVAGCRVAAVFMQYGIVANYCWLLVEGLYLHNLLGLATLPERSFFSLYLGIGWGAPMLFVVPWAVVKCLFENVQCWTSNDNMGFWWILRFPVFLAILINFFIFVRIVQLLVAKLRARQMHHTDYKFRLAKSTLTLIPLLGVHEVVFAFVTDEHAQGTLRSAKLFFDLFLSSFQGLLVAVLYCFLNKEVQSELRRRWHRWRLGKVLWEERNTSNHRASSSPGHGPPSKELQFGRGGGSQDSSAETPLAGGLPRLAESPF

| Binder | Relative cAMP EC50 (hGLP-1R) | cAMP Rel EC50, nM (1% HSA) (hGLP-1R) | Relative cAMP EC50 [1] | cAMP Rel EC50, nM (1% HSA) [1] | Relative cAMP EC50 [2] | cAMP Rel EC50, nM (1% HSA) [2] |
| --- | --- | --- | --- | --- | --- | --- |
| B1 | 0.331 nM | 40.8 nM | 0.0393 nM | 27.6 nM | 2.08 nM | 348 nM |
| B2 | 0.282 nM | 42.9 nM | 0.0121 nM | 4.25 nM | 3.81 nM | 1440 nM |
| B3 | 0.15 nM | 20.3 nM | 0.0997 nM | 46.9 nM | 5.49 nM | 1150 nM |
| B4 | 0.264 nM | 36.6 nM | 0.0153 nM | 6.02 nM | 4.7 nM | 627 nM |
| B5 | 0.615 nM | 65.5 nM | 0.0235 nM | 9.47 nM | 8.52 nM | 1650 nM |
| B6 | 0.194 nM | 28.7 nM | 0.0114 nM | 3.07 nM | 1.92 nM | 319 nM |
| B7 | 0.365 nM | 24.7 nM | 0.0239 nM | 1.96 nM | 8 nM | 855 nM |
| B8 | 0.38 nM | 52.6 nM | 0.0496 nM | 28.9 nM | 8.64 nM | 1090 nM |
| B9 | 0.21 nM | 31.9 nM | 0.0132 nM | 2.98 nM | 3.25 nM | 468 nM |
| B10 | 0.139 nM | 16.6 nM | 0.079 nM | 29.8 nM | 4.33 nM | 740 nM |
| B11 | 0.438 nM | 78.9 nM | 0.0144 nM | 4.65 nM | 2.11 nM | 559 nM |
| B12 | 0.207 nM | 38.2 nM | 0.01 nM | 4.55 nM | 2.35 nM | 536 nM |
| B13 | 0.318 nM | 29.5 nM | 0.0154 nM | 3.21 nM | 3.12 nM | 443 nM |
| B14 | 0.273 nM | 43.4 nM | 0.0206 nM | 15.3 nM | 5.78 nM | 532 nM |
